# Experimental data taken from IntAct's records for PubMed 24351927.
# How the values were obtained:
# [1] = biological target: 1433t_human YWHAQ (UniProt P27348)
# [2] = biological target: 1433g_rat Ywhag (UniProt P61983)
# [3] = biological target: 1433z_human YWHAZ (UniProt P63104)
# [4] = biological target: 1433g_rat Ywhag (UniProt P61983); remark: listed apart in the source
# Sequence of UniProt P61983 (P61983 whole entry): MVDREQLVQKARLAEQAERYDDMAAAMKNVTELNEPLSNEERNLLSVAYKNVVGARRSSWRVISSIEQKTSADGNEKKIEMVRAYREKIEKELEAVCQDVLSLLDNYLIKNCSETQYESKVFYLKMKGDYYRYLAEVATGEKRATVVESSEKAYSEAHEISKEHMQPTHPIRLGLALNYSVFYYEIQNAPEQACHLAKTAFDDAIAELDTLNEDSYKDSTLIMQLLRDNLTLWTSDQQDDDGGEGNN
# Sequence of UniProt P27348 (P27348 whole entry): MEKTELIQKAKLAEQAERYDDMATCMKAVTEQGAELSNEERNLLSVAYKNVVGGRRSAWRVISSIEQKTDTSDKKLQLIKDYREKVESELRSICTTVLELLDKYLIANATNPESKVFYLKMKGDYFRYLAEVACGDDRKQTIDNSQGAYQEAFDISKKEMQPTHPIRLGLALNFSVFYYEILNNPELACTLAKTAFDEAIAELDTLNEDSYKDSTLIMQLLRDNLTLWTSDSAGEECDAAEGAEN
# Sequence of UniProt P63104 (P63104 whole entry): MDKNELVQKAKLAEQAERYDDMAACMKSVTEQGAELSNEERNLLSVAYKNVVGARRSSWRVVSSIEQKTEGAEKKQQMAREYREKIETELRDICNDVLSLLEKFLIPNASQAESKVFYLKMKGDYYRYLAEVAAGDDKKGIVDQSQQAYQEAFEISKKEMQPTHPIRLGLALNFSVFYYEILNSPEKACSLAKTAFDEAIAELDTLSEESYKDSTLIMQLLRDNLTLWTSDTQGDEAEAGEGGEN
effect of a mutation on the interaction [1],effect of a mutation on the interaction [2],effect of a mutation on the interaction [3],effect of a mutation on the interaction [4],Substance
disrupting interaction,disrupting interaction,disrupting interaction,,"Leucine-rich repeat serine/threonine-protein kinase 2 (Homo sapiens), Q5S007 R1441G"
,,,disrupting interaction,"Leucine-rich repeat serine/threonine-protein kinase 2 (Homo sapiens), Q5S007 S1443A;S1444A"
disrupting interaction,,disrupting interaction,disrupting interaction,"Leucine-rich repeat serine/threonine-protein kinase 2 (Homo sapiens), Q5S007 S1444A"
